Target: PDZ1/2 domain (UniProt P78352)
Sequence (P78352 61-249 limits assumed): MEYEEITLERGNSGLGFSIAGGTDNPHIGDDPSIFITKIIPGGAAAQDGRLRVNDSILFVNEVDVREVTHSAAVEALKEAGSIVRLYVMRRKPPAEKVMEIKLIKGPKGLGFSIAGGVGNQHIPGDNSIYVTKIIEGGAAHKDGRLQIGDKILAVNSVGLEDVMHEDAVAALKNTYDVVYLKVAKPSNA

control chimeric peptide NA-1
Kd: 75.3 nM

From patent US20210000909A1
